Test results taken from publication PMC10280071, “Allelic variation in the indoleacetic acid-lysine synthase gene of the bacterial pathogen Pseudomonas savastanoi and its role in auxin production” (Frontiers in Plant Science, 2023).

Tests used:
[1] = system: T1, IaaLPsf-3; experiment: coupled continuous spectrophotometric assay of AMP formation (myokinase/pyruvate kinase/lactate dehydrogenase, NADH at […] nm); format: biochemical, Pseudomonas savastanoi; settings: 1 mM ATP, 3 mM MgCl2, 100 mM KCl, 50 mM Tris-HCl pH 8.0, 25 °C
T1 construct: wild-type full-length ORF in pET28a, His6-tagged (C-terminal in methods, N-terminal in results), tag not cut, E. coli BL21

[2] = system: O=C(O)Cc1c[nH]c2ccccc12; experiment: purified protein; settings: 5 mM lysine fixed, IAA 0.05-10 mM, 1 mM ATP, 3 mM MgCl2, 100 mM KCl, 50 mM Tris-HCl pH 8.0, 25 °C

For NCCCC[C@H](N)C(=O)O [Lys], the Km ([1]; 1 mM IAA fixed, lysine 0.01-10 mM) was 320 ± 45 µM.

With O=C(O)Cc1c[nH]c2ccccc12 [IAA] the Km ([1]; 5 mM lysine fixed, IAA 0.05-10 mM) was 836 ± 142 µM.

“IaaLPsn-1 (Pseudomonas savastanoi pv. nerii)” showed a Km [2] of 617 ± 158 µM, a Vmax [2] of 0.0106 µmol/min/mg and a Vmax/Km [2] of 17.2 µL/min/mg.
